Results on 15 sequences are retold here after a protein production outcome set (Wang et al. 2014).

The data set in a line: label from the status in PepcDB records.

As for “MGMASMSSGTESLRLCVFDLRRGQHEGQELDKILFFYPPDLTFSTQLSVIGLSEGLITFTRLFSPEAACEVIEAERHSHVFYEAEPDIWMVMIVEKNKEIEAVWRIDALRRVLKEVHSLFVMFQGSIRALLEKEPTGGLVRSHLYPFITDYLNDLFVGKKQQLPSFRDTLKERGTVQMLTLARDAALEVQSLVGVLDSCAGTVRCHSVILFHDLLVSTTLSPDDTVDLFAFSVMRLTTNALSSGTSSWSYLRKGSGSPQISSRSTTVPPLGSGGTLPSGNGSSTGRVIRPLQHDKWSKGKDGFLVTDIWGLDATPTILIQKTQESFYLLTYQYKSLTLVLLVPIAAIVNGELDISFVKQQVIENASTKILKVEEKLSKGWGGENAYHVSGYRYLLVDNDMEVSRASPPGKVATLAKESLLALNKLREEVDTEKNRSKQEKDMEICIRAKNNTWVIARLNRGKELYMALEKASETLLDATDSVQRFSNRYCSGAFPMD”, the protein production result is listed as “failed”.
On to “MGMEHKTYEADLFVWCQQQADGLRALSRSRRDLPDDLDLEHIAEEIEDMGRSELREATSLVRQICVRVIMAMSAPEAPDRARWRSEVVSWHNLLLDTITPGMIDRIDIGVIWRRAVSEAKAALIEINVAPQAGLSFQAPLPADHFLDEDFDYDATVARLGPTA”, for which the protein production result is given as “not failed”.
Then “MGMPAGPYLLTPPGVYAPQHDTDLLARALRREDIDTSTEVLDLGTGSGALAVHAARLGARVTAVDISRRAVLTARLNALLAGRRVTVRRGDLTAAVPGRSYDLVVSNPPYVPSPSARLPSRGAARAWDAGHDGRAFVDRICDTAPAALRAGGALLIVHSALCGTRPTLDRLAAAGLDASVTDRAFVPFGPVLRARRAWLRRQGLLTDENLEELVVIRAEHS”, with “failed”.
As for “MGNKKEIAIVALTTGFVLTSVTPYGVGHAEETGQMQVEIQEDSFRTGDLTQPSKKAPENVVKDALKENTEHALSPKQVSAETGVDYKVLQKRGSYDGTTLVRMQQIYEGKEVYGHQLTAHVDKKGIIKSISGASAQNLTQEDLKKPINLSKEEAKQYIYKKYGNDTKFISEPEVKAVIFVDENHGQASNAYQVTFAATTPNYVSGTYLVNAHNGEMLKDMVQESSLKISEEYVESVKENKTSNFTSLTGTGKDDLGVTRTFGISKQTSGNYALADYTRGQGIETYDVNYRDITNEESYYPGILATSVSTTFNDPKAVSAHFLATKVYDFYKEKYKRNSFDNKGKKVVSVVHAWDSGGTNDPENWENAFSTNINNISMLLYGDPMVKAFDIAGHEFTHAVTSSESNLEFSGESGAINEALSDIMGTAIEKYINNGEFNWTIGEQTGSTFRNMKNPTAINFSEGLPYPDDYSKYNDLNGEDYGGVHFNSSIINKVAYLMAQGGTHNGVNVNGIGEDRMFDIFYYANTDELNMTSNFSELKLACLKVATNKYGANSIEVQAVQNAFDAAKITGTVKENEKTAENQAPELTVPFTITLRVGDTFDPMRNVKAVDKEDGDLTNKVKHKGDVDTSKPGTYIVEYMVVDSQGRNATATQTVIVEGNGETSDLEPKLTVPVGATIHVGDSFVPMAEVLAIDKEDGDLTSKIKVDGEVDTTKAGTYVLTYTVTDSKGHEVTAKQTVTVKVREEVKNDKPILKVPATTSITEGDQFDPLVGVSATDKEDGDLISKVAYEGTIDTTKAGTYEIIYSVRDSVGNEVNAIQKVLVKDKETSKANGLANKENKSNISNNSNSDKKEYTYKELPKTGVSTTNSAAIGILIIIVGTVLTLVRKFRKIQK”, the protein production result was “failed”.
As to “MGNQLAIQMNSDEDDDFDSSDNELGFNVINFTVNAMDLRSDYCSSEMPVIRGKPDLVKFQKTDMYKEIQASSGLVSNPNNRWNLVHALQQRENGLASPHSASFSKNQQRYISNLYIPNKKATRLMSLESKIFVTKFNRSGSKLLTACQDGFVRIYDGAKGTYHLLNRIRARDVEWSIIDADFSPNGEHFAYSTWSRSLFIMPVNGGEDDCQWIDVNGLPSHRLAIFSLRYSPTGDKIIGGSNNSTVIVTDIRTRNTQILRTHRMPGKDVNSVCFLHDKDPNVIIAGCDDGLLKVYDLRTTFRSRDLSKSVASFIGHYDGITYIDSRNDGYHVLSNSKDQSIKIWDIRQPSNMRNRSRSRQQVDPTTWDYRWNRVPREFYNPHKPLEGDSSIMTYRGHRVTKTLLRAKFSPMEQTGQRYIYTGCATGRIIIYDVLTGKIQEAIEGHRTVIRDLDWHPDRSEIVSGSWDTHVHLNNFSRSNANRPVKRSHSSDHDKKPLRRSRRLANRNVTPD”, the protein production entry was “failed”.
Regarding “MGNVGLLFVGAVLFMNGLLLLGKVDAKAAAVFNLFIGALQVLTPTYLIFTANGDPMKILAASGIYLFGFTYLYVGIGLLTGLDSTGVGYYSLFVAVAALGYSFVNFRLFKDYPFGVIWLYWAYLWFLFFLLLGLKKDDLKIYTGWVTAIEGWVTGAIPAGLLLSGYWKHPTETAIALAVFGVVVFVGLWPRTHRTPRPTSAAPRTGGVGAPT”, the protein production result is listed as “failed”.
As for “MGPRRLLLVAACFSLCGPLLSARTRARRPESKATNATLDPRSFLLRNPNDKYEPFWEDEEKNESGLTEYRLVSINKSSPLQKQLPAFISEDASGYLTSSWLTLFVPSVYTGVFVVSLPLNIMAIVVFILKMKVKKPAVVYMLHLATADVLFVSVLPFKISYYFSGSDWQFGSELCRFVTAAFYCNMYASILLMTVISIDRFLAVVYPMQSLSWRTLGRASFTCLAIWALAIAGVVPLLLKEQTIQVPGLNITTCHDVLNETLLEGYYAYYFSAFSAVFFFVPLIISTVCYVSIIRCLSSSAVANRSKKSRALFLSAAVFCIFIICFGPTNVLLIAHYSFLSHTSTTEAAYFAYLLCVCVSSISCCIDPLIYYYASSECQRYVYSILCCKESSDPSSYNSSGQLMASKMDTCSSNLNNSIYKKLLT”, the protein production entry is recorded as “failed”.
As for “MGQFSILGFIALGGAIGACSRYLVSEFCVLLFGRGFPYGTLTVNVVGSFIMGLLIAAFENEILATEPWRQVIGLGFLGALTTFSTFSMDNVLLMQQGAFFKMGLNILLNVVLSISAAWIGFQLLMRS”, the protein production entry is given as “failed”.
Next, “MGQKAKAQAPTTHPRPHTLSSQVAPALPRRPRHAAPESLRQARGEVMKAHLITYGCQMNEYDTHLVQSQLVSFGADIVESPDEADFVLVNTCAVRGKPVDKVRSLLGDLRKQKAQRSLVVGMMGCLAQLEEGQQIARKFEVDVLLGPGSLLDIGAALESNERFWGLQFKDELHDHIPPPPSGKLQAHLTIMRGCDHHCTYCIVPTTRGPQVSRHPDDILRELDMQLAAGVREVTLLGQNVNAYGVDQGAKLKGYPSFADLLRMVGASGIERVKFTTSHPMNFTEDVAAAIGETPAICEFVHLPVQSGSDRVLRRMAREYNREKYLTHIAQIKKHIPDVVLATDIIVGFPGETEEDFQDTLSLYDEVGYDSAYMFIYSPRPGTPSYKHFQDLPRELKTERLQRLIARQKDWSARKNAQKVGTVQQVLLRGDAHDAGFLEGHTRGNHPTVVPKAIGADGAGVYQVRIDHATPHMMYGHILGPDGQPLPEQPRFNPEAAAVGGALPML”: “failed”; “MGRAHVSTHELVAGRYRLFEVVQRETNRVCWSGEDATTGRPCLVTRIELPEGRAGEAARRAPGRVIRTGETMASLCPGRIAPVLDAVVADGMLWTVTEWVAGVPLGDLLDRRGAFGCARAARVGLELLAVLEAAHTHGVTHGELSPGQVFVREEGSVLVTGFGLAGATLAPRLTAPAYASPEQARDERIGPAADLWTLGAILYTMVEGRPPFRDRGRPEATLKGVDRLPLRTPVRAGPLAQAVTGLLRKNSRERPTRPVVRAALARALAEDPGTAVTEVTTGPGVRGGYAAARTAGRDRSRRTVAAGTALAVVTVAVAVLADLAVTDGLPGRGDGAAAGARQRPSASAAPPTGSAPAAASPGSPSSPAGRPSASASPSKPGVPAPAGFRRYDAPEGFSVALPEGWRRLDTASAPGGAYRVVFGASGDPRTLAVTYSRRAGADPVVVWRDDVEPGLARSDGYRRIGEIRSTTYRGRAAADMEWLVRDDGTRLRTFGRGFLLGGGRSFSLRWTTPAGDWDDSANERALAAFLGTFRDGAA”: “failed”.
Regarding “MGRAMGDSFTFIFNPAADKGRAADKTALIERSLAHFEVASLETTRFAGHAAEIARAAAGEGSTLIACGGDGTLNEVVNAVAGQPVKVGVLPVGSANDFLKTFNPSAKEHEVRIRGFAGATSRKVDLGKV”, the protein production entry is “failed”.
Next, “MGREFLDLFEQWAESYDQSVEGYDEQYRDVFAGYDRILSTVADKAGQVVLEFGIGTGNLTKKLLERGKTVYGIEPSAPMRKKAAEKLGERAVIMDGDFLQFPLPPEPIDTIASTYAFHHLTDAEKDEAIAKYSQLLHSGGKIVFADTAFRDKEAFRQTVEAARARGFHDLADDLEREYYTTLDVLASLFANHGFSVSFAQQNAFVWVMEAVKQTTLEHHHHHH”: “not failed”; “MGRKNSPSERERELQNLIAQYEAVKAKNESLYLDGDQLADIADLYASERKFKEAQEVITYGLGLHPGHTDLMVEQAYLFLDLNQPQKAKEVAELITDTYSSNVKLLLAELLLNEGKLDAADQMLDSIEEEEKNDLGILVDIVYLYTDLGYPEKGVQWLKRGAEMYKDDEDFLAATADCYGAAGAEYIEQAIVVFNKLIDKNPYNPAYWVGLAKCQFATKDFDKAIESCDFAIAADEEFGEAHIIKAHSLFHLENIEGAIVEYRKALKYKTLSPEFTYMFIGLAYTQQENWAEANESYSMALRAIEENGNGSSPLLSDIYSNKALCASRQGDSEEAHRLCRLAKELAPQDAEPYLLEGRIYMEEDNFDLARAEWALALRYAPEADTWMEIGNYSLEFRMLENARFCFEQVLEEDPEYPKICEQLAAVCLVLQDHEGFKKYNAMSGDSINLDSLRDTILEMGVDGEQMLRELDDFLKDEK”: “failed”; “MGRLSGKTILVTGAASGIGRAALDLFAREGASLVAVDREERLLAEAVAALEAEAIAVVADVSDPKAVEAVFAEALEEFGRLHGVAHFAGVAHSALSWNLPLEAWEKVLRVNLTGSFLVARKAGEVLEEGGSLVLTGSVAGLGAFGLAHYAAGKLGVVGLARTLALELARKGVRVNVLLPGLIQTPMTAGLPPWAWEQEVGASPLGRAGRPEEVAQAALFLLSEESAYITGQALYVDGGRSIVGPPGLPPGFGPKGGERHAHVL”: “not failed”.
Turning to “MGRNDPLAAYNAKRDFARTAEPAGKRKSSATGNLFIVQKHDATRLHWDFRMEVDGVLKSWAVTRGPSPDPDDKRLAVQTEDHPLEYARFEGIIPEGEYGGGTVMLWDKGTWEPVEGKSAKDLEKGHLHFRLEGERMKGEWLLVRLKRRGNEKRDNWLLRKLDDAYAGQGDQLVERGLTSVLTGRTMAEIASDKAGSHSLKGKRGKAFASVMEEAGTHNRKVGKARGKAPSRARRNAPLPAFQPVQLATLVDTVPDGRQWLYEIKFDGYRALVAVRGTEVRVFTRSGLDWTEKFAPLARHLAGLKLPSCLIDGEIVAADADGNPDFSRLQAVLKRGHGEQGEGDALSFHAFDLLELEGEDLKPLPNVERKQKLAALLAGVSPPIHVADHIIGGGEKLLGALCGAGQEGIICKRADAAYAGKRTQNWLKVKCVARQEFIVVGFTRSSARRRPFASLLLAQREGKALVYKGKVGTGFDEDLLQDLATRFEALKVDEGPLDVPITEARGVTWLKPELVAEIAFAEFTAEGRVRHASFVGLREDKKAADVVPERPAPLVVQPEIVPISNRERVIFPESGQTKGDLADYYAAMAPAMLPFIANRPVSLVRCPQGRARHCFFQKHDSGSFGEHVHHVPIREKDGNEEEYLFVSDAAGILSCVQMGTIEFHGWCSLASDVEAPERMVIDLDPDEGLDFNDVKRAARDIRDRLSDLGLVSFAMLSGGKGVHVVVPLRPDHTWEAHASFAERFARALALAEPDRYVATMSKARRKGRIFIDWLRNRRGSTAVMPYSARARANAPVAVPIAWEELDDFANAHPFCIGDTAGLLKRSEGKSLRGWGMAQQSLPDV”, the protein production result was “failed”.
